Residue numbers refer to the chain shown, from its start.
B1: Clone 31 (VH5Vκ2), humanised variant of clone #28, human IgG1 (antibody, V domains shown)
VH: QVQLQESGPGLVKPSETLSLTCTVSGFSLNNYDMSWVRQAPGKGLEWIGTVSTTYRRYYASWAKGRFTISRDNSKNTLDLQMTSLTAEDTATYFCAASGIWGRGTLVTVSS
VL: AQVLTQSPSTLSASVGDRVTITCQSSQRVYSNYLAWYQQKPGQPPKRLIFLASTLESGVPSRFSGSGSGTEFTLTISSLQPDDFATYYCAGTYTGSIWAFGGGTKVEIK
notes: also called VH5VK2; VH5Vk2
B2: Clone 27 (VH4Vκ2), humanised variant of clone #28, human IgG1 (antibody, V domains shown)
VH: B1 VH with R71K, N73T, K75S, N76T, L78V
VL: B1 VL
notes: also called VH4VK2; VH4Vk2
B3: Clone 24 (VH3Vκ4), humanised variant of clone #28, human IgG1 (antibody, V domains shown)
VH: QVQLQESGPGLVKPSETLSLTCTVSGFSLNNYDMSWVRQAPGKGLEWIGTVSTTYRRYYASWAKGRFTISKTSSTTVDLQMTSLTAEDTATYFCAASGIWGRGTLVTVSS
VL: B1 VL with A1D, Q2I, V3Q, L4M
notes: also called VH3VK4; VH3Vk4
B4: Clone 32 (VH5Vκ4), humanised variant of clone #28, human IgG1 (antibody, V domains shown)
VH: B1 VH
VL: B1 VL with A1D, Q2I, V3Q, L4M
notes: also called VH5VK4; VH5Vk4
B5: Clone 28 (VH4Vκ4), humanised variant of clone #28, human IgG1 (antibody, V domains shown)
VH: B1 VH with R71K, N73T, K75S, N76T, L78V
VL: B1 VL with A1D, Q2I, V3Q, L4M
notes: also called VH4VK4; VH4Vk4
B6: Clone 6 rabbit monoclonal IgG (antibody, V domains shown)
VH: QSVEESGGRLVTPGTPLTLTCTVSGFSLSSYDMSWVRQAPGKGLEWIGTIGRYYNTYYATWAKGRFTISKTSSTTVDLKMTSLTTEDTATYFCASSGIWGPGTLVTVSL
VL: AQVLTQTASPVSAAVGGTVTINCQSSQTVYNNNYLSWYQQKPGQPPKRLIYLASTLESGVPSRFSGSGSGTQFTLTISGVVCDDAATYYCAGTYSGSIWAFGGGTEVVVKG
notes: Rabbit IgG expressed in HEK293F; also called P2-C11; A4
B7: Clone 8 rabbit monoclonal IgG (antibody, V domains shown)
VH: B6 VH with V3L, T12A, K42R, G51S, R52S, Y53S, N55R, T60S
VL: AQVLTQTASPVSAAVGGTVTINCQSSQRVYNNYLAWYQQKPGQPPKRLIYLASTLESGVPSRFSGSGSGTQFTLTISGVVCDDAATYYCAGTYSGSIWAFGGGTEVVVKG
notes: Rabbit IgG expressed in HEK293F; also called P2-F3; H2
B8: Clone 4 rabbit monoclonal IgG (antibody, V domains shown)
VH: B6 VH
VL: B6 VL
notes: Rabbit IgG expressed in HEK293F; also called P2-E5; B3
B9: Clone 5 rabbit monoclonal IgG (antibody, V domains shown)
VH: B6 VH with V3L, T12A, K42R, G51S, R52S, Y53S, N55R, T60S
VL: B7 VL
notes: Rabbit IgG expressed in HEK293F; also called P1-B2; A1
B10: Clone 7 rabbit monoclonal IgG (antibody, V domains shown)
VH: B6 VH
VL: B6 VL
notes: Rabbit IgG expressed in HEK293F; also called P1-D10; D2
B11: Clone 3 rabbit monoclonal IgG (antibody, V domains shown)
VH: B6 VH with V23A, S30R, G51S, R52G, Y53S, A59M, T60S
VL: B7 VL with N31S, A35S, K46R, Y50W
notes: Rabbit IgG expressed in HEK293F; also called P2-B12; D4
B12: Clone #28 VH0VK0 chimeric human IgG1 (rabbit VH and VK of Clone 1) (antibody, V domains shown)
VH: QSLEESGGGLVKPGGTLTLTCTVSGFSLNNYDMSWVRQAPGKGLEWIGTVSTTYRRYYASWAKGRFTISKTSSTTVDLKMTSLTTEDTATYFCAASGIWGPGTLVTVSL
VL: AQVLTQTTSPVSAAVGGTVTINCQSSQRVYSNYLAWYQQKPGQPPKRLIFLASTLESGVPSRFSGSGSGTQFTLTISDLECDDAATYYCAGTYTGSIWAFGGGTEVVVK
notes: also called VH0Vκ0; #28 VH0κ0

What was measured:
[1] = molecular target: full length pHrodo-labelled monomeric (P301S) 2N4R tau (human, UniProt P10636 1-758, labelled with pHrodo Red Maleimide); test: cell-based or functional assay
[2] = molecular target: full length pHrodo-labelled aggregated (P301S) 2N4R tau (human, UniProt P10636 1-758, labelled with pHrodo Red Maleimide); test: cell-based or functional assay
[3] = molecular target: T1, full length recombinant human 2N4R tau (amino acids 1-441) (human, UniProt P10636 1-758); test: SPR Biacore SCK, IgG on Protein A, tau analyte
T1 construct: Bought (rPeptide); recombinant, non-phosphorylated; also called recombinant tau
Description: (§1) 23.5 Assessment of antibody binding to tau (Biacore SCK analysis): Binding of anti-tau hIgG1 to full length recombinant 2N4R tau (Rpeptide; SEQ ID NO: 2) was assessed using the Biacore T200 (GE Healthcare, Chicago, Ill., USA) running Biacore T200 Evaluation Software V2.0.1. hIgG1 were immobilised on a Protein A capture sensor chip in running buffer (HBS-EP+ buffer containing 1 mg/mL BSA) at 25° C. captured to ˜50 RU at 10 μL/min. For single-cycle kinetics experiments, recombinant 2N4R tau was flowed at concentrations ranging from 5 nM to 40 nM (2-fold dilutions) with an association time of 150 s and a dissociation time of 200 s. Curves were compared to a reference cell that was mock immobilized (no antibody present).
Data were analysed using Langmuir (1:1) binding analysis, describing a 1:1 interaction at the surface: […]

[4] = molecular target: T1, full length recombinant human 2N4R tau …; test: SPR Biacore MCK, purified IgG on Protein A, tau analyte
Description: Biacore multi-cycle kinetics (MCK) analyses for antibody binding to recombinant (non-phosphorylated) 2N4R tau are summarised in FIG. 23 and Table 8. […] Slight variations in RMAX are considered likely to be due to differences in ligand capture and not reflective of significant variation in antibody binding characteristics.
as §1, with “24.2” for “23.5”, “MCK” for “SCK”, “For single-cycle kinetics experiments, recombinant 2N4R tau was flowed at concentrations ranging from 5 nM to 40 nM (2-fold dilutions) with an association time of 150 s and a dissociation time of 200 s.” left out

Bovine serum albumin [5] = molecular target: T2, Bovine serum albumin (bovine, UniProt P02769 25-607); test: ELISA on 1% BSA, HEK supernatant, anti-human IgG-HRP, n=1
T2 construct: Negative control antigen in ELISA; also called BSA
Description: (§2) Antigen was removed from wells and the plates were then blocked for 1 hour at RT with 5% dried milk in 1×TBS. Blocking solution was removed, HEK293 cell supernatant (1:100 in 1% BSA/1×TBS) was added to relevant wells, and plates were incubated for 1 hour at RT with gentle shaking. Plates were then washed four times with TBS/0.1% Tween (TBST). Goat-anti-human IgG-HRP antibody (ThermoFisher Scientific, Waltham, Mass. USA), diluted 1:2000 in 5% milk/TBS, was added to each well and plates were incubated for 1 hour at RT with gentle shaking before being washed four times with TBST. 3,3′,5,5′-tetramethylbenzidine (TMB) ELISA solution was added to each well and plates were incubated for 15 mins at RT. An equal volume of 1 M sulfuric acid was added to each well and OD was measured at 450 nm.

[6] = molecular target: T1, full length recombinant human 2N4R tau …; test: ELISA, HEK293F supernatant on coated tau
Description: as §2, with “removed. HEK293F” for “removed, HEK293”, “(10 μg/mL, to 0.0001 μg/mL” for “(1:100”, “Anti-rabbit” for “Goat-anti-human”, “(Sigma. St Louis, Mo.,” for “(ThermoFisher Scientific, Waltham, Mass.”, “1:5000” for “1:2000”

Bovine serum albumin [7] = molecular target: T2, Bovine serum albumin; test: ELISA on 1% BSA, HEK293F supernatant, anti-rabbit IgG-HRP, n=1
Description: FIG. 9. A panel of anti-tau IgG bind to linear immunogen peptide and full length recombinant 2N4R tau in ELISA format. […] Binding of anti-tau IgG was detected using an HRP-conjugated anti-rabbit secondary antibody and data shown are from a representative experiment (n=1).
as §2, with “removed. HEK293F” for “removed, HEK293”, “(10 μg/mL, to 0.0001 μg/mL” for “(1:100”, “Anti-rabbit” for “Goat-anti-human”, “(Sigma. St Louis, Mo.,” for “(ThermoFisher Scientific, Waltham, Mass.”, “1:5000” for “1:2000”

T1 sequence (P10636 other isoform, or with tags, fused parts or gaps limits assumed): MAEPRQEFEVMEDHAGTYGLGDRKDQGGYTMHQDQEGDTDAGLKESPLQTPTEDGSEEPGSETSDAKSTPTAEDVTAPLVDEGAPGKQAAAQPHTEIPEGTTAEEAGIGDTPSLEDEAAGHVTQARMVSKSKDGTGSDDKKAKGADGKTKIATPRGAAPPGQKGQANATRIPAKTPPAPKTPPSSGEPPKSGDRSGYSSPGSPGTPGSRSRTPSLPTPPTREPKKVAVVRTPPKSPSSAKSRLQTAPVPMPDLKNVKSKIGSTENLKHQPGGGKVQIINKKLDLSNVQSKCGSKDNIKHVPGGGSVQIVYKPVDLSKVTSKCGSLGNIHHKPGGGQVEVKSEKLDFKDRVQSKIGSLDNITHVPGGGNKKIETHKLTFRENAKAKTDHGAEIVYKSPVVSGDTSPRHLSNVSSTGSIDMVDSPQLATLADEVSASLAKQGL
T2 sequence (P02769 25-607 limits assumed): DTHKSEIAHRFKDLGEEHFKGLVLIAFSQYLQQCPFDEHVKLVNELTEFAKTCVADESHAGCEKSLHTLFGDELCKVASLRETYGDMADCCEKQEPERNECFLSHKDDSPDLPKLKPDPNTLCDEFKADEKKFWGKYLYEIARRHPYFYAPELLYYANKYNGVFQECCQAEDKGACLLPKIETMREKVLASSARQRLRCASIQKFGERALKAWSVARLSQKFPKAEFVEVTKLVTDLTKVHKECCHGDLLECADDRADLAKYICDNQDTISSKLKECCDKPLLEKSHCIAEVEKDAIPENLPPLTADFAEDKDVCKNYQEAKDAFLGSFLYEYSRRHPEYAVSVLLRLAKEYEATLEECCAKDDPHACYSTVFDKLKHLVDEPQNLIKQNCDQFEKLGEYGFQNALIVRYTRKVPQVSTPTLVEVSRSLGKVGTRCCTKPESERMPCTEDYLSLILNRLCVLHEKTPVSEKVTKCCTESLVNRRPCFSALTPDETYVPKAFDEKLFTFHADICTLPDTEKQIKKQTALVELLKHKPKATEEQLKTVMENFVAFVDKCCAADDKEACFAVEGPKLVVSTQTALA
Sequence of full length pHrodo-labelled monomeric (P301S) 2N4R tau (P10636 other isoform, or with tags, fused parts or gaps P301S P301S): as the sequence (P10636 other isoform, or with tags, fused parts or gaps limits assumed) above, with P301S counted along it
Sequence of full length pHrodo-labelled aggregated (P301S) 2N4R tau (P10636 other isoform, or with tags, fused parts or gaps P301S P301S): as the sequence (P10636 other isoform, or with tags, fused parts or gaps limits assumed) above, with P301S counted along it

Binder	inhibition of uptake of monomeric tau into human iPSC-derived astrocytes [1] [% inhibition]	inhibition of uptake of monomeric tau into human iPSC-derived neurons [1] [% inhibition]	increase of uptake of aggregated tau into human iPSC-derived microglia [2] [% increase]	inhibition of uptake of aggregated tau into human iPSC-derived astrocytes [2] [% inhibition]	inhibition of uptake of aggregated tau into human iPSC-derived neurons [2] [% inhibition]	Kd [3] [nM]	Relative KD [3] [fold vs VH0VK0]	koff [3] [s⁻¹]	kon [3] [M⁻¹ s⁻¹]	Kd [4] [nM]	Relative KD [4] [fold vs VH0VK0]	koff [4] [s⁻¹]	kon [4] [M⁻¹ s⁻¹]	binding result (Bovine serum albumin [5])	OD (ELISA) [6] [OD]	binding result (Bovine serum albumin [7])
B1	26.7	57.3	133	27.8	57.2	96.5	2.13	0.00362	37500	34.8	1.4	0.00321	92400	no binding (tested: supernatant 1:100)	–	–
B2	–	66.5	179	–	58.7	68.6	1.51	0.00308	44800	44	1.77	0.0026	59100	no binding (tested: supernatant 1:100)	–	–
B3	31.5	63.3	267	30.8	61.4	21.2	0.47	0.00146	68900	17.1	0.69	0.0013	76100	no binding (tested: supernatant 1:100)	–	–
B4	45.7	64.2	243	45.7	41.3	67.3	1.49	0.00239	35500	33.6	1.35	0.00239	71100	no binding (tested: supernatant 1:100)	–	–
B5	42	61.5	246	29.1	58.7	49	1.08	0.00234	47700	26.9	1.08	0.00186	69200	no binding (tested: supernatant 1:100)	–	–
B6	–	–	–	–	–	–	–	–	–	–	–	–	–	–	0.3	no binding (tested: supernatant 1:50)
B7	–	–	–	–	–	–	–	–	–	–	–	–	–	–	0.3	no binding (tested: supernatant 1:50)
B8	–	–	–	–	–	–	–	–	–	–	–	–	–	–	0.3	no binding (tested: supernatant 1:50)
B9	–	–	–	–	–	–	–	–	–	–	–	–	–	–	0.3	no binding (tested: supernatant 1:50)
B10	–	–	–	–	–	–	–	–	–	–	–	–	–	–	0.3	no binding (tested: supernatant 1:50)
B11	–	–	–	–	–	–	–	–	–	–	–	–	–	–	0.3	no binding (tested: supernatant 1:50)
B12	–	–	–	–	–	45.3	1	0.00342	75400	24.9	1	0.00249	99900	no binding (tested: supernatant 1:100)	–	–

Source: patent US20220265819A1 (GEN2 NEUROSCIENCE, published 2022)
